Data taken from the supplement of paper PMC10065799, “High-throughput profiling of sequence recognition by tyrosine kinases and SH2 domains using bacterial peptide display” (eLife, 2023).

Columns and labels:
EPHB2 = EPHB2 (UniProt P29323); assay: phosphorylation enrichment, bacterial display (enrichment ratio); higher = better substrate or ligand; peptides without Tyr show the background
Fyn = Fyn (UniProt P06241); assay: as above
c-Abl (mouse) = assay: as above
Fer (mouse) = assay: as above
Jak2 = Jak2 (UniProt O60674); assay: as above
AncSZ = assay: as above
MERTK = MERTK (UniProt Q12866); assay: as above
Fes = Fes (UniProt P07332); assay: as above
FGFR3 = FGFR3 (UniProt P22607); assay: as above
c-Src = assay: as above
FGFR1 = FGFR1 (UniProt P11362); assay: as above
Hck = Hck (UniProt P08631); assay: as above
EPHB1 = EPHB1 (UniProt P54762); assay: as above
c-Src SH2 = assay: SH2 binding enrichment of the phosphorylated peptide, bacterial display (enrichment ratio); higher = better substrate or ligand; peptides without Tyr show the background
SHP2-C SH2 = assay: as above
Grb2 SH2 = Grb2 SH2 (UniProt P62993); assay: as above
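For SH2 binding enrichment of the phosphorylated peptide, bacterial display in this document: peptide library displayed on the E. coli surface as eCPX fusions, selected cells deep-sequenced, score is each peptide's frequency after selection divided by its frequency in the input.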
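For phosphorylation enrichment, bacterial display in this document: 11-residue human phosphosite peptides and single-mutation variants displayed on the E. coli surface, counted by deep sequencing, each peptide's frequency after selection divided by its frequency in the unselected input library; frequency after pTyr selection over input frequency; kinase dosed for 20-30% of maximal phosphorylation in three min.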

Sequence of EPHB1 (P54762 whole entry, looked up): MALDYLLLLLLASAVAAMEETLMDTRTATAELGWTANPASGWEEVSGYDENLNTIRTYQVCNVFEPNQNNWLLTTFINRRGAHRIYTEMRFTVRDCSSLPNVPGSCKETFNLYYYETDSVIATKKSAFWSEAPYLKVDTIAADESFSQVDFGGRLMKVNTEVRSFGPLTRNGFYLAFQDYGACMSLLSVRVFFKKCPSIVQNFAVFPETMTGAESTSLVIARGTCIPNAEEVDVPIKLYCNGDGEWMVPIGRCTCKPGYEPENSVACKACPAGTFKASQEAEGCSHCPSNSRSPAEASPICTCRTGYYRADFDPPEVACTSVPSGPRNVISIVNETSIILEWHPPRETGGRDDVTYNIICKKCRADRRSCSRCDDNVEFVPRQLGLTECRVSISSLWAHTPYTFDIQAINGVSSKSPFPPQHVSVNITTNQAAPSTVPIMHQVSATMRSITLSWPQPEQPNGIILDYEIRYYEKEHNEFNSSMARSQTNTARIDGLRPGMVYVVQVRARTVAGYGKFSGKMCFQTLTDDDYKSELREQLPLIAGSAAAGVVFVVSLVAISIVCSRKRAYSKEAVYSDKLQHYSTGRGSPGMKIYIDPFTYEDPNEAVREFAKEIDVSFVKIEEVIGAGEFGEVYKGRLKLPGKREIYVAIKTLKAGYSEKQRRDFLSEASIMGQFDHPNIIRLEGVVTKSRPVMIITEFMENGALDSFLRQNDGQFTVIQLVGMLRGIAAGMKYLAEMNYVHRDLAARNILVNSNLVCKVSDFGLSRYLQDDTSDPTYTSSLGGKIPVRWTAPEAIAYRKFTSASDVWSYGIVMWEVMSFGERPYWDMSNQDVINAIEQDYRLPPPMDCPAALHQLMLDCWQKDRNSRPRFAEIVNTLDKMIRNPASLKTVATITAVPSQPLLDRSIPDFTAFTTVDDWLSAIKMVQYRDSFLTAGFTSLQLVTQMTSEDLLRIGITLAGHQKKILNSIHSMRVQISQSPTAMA
Sequence of Hck (P08631 whole entry, looked up): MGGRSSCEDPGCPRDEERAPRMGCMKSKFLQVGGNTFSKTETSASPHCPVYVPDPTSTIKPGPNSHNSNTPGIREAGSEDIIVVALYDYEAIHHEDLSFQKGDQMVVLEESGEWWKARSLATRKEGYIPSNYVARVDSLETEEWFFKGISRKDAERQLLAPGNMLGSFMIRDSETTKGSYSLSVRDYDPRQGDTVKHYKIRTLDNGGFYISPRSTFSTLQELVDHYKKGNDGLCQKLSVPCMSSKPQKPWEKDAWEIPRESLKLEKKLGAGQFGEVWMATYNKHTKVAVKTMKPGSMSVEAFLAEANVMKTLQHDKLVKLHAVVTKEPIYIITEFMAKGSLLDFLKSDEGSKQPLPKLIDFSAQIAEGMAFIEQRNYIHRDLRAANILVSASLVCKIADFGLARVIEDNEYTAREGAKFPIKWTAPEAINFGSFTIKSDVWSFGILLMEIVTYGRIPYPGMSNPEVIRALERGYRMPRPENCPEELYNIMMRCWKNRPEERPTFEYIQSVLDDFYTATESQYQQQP
Sequence of MERTK (Q12866 whole entry, looked up): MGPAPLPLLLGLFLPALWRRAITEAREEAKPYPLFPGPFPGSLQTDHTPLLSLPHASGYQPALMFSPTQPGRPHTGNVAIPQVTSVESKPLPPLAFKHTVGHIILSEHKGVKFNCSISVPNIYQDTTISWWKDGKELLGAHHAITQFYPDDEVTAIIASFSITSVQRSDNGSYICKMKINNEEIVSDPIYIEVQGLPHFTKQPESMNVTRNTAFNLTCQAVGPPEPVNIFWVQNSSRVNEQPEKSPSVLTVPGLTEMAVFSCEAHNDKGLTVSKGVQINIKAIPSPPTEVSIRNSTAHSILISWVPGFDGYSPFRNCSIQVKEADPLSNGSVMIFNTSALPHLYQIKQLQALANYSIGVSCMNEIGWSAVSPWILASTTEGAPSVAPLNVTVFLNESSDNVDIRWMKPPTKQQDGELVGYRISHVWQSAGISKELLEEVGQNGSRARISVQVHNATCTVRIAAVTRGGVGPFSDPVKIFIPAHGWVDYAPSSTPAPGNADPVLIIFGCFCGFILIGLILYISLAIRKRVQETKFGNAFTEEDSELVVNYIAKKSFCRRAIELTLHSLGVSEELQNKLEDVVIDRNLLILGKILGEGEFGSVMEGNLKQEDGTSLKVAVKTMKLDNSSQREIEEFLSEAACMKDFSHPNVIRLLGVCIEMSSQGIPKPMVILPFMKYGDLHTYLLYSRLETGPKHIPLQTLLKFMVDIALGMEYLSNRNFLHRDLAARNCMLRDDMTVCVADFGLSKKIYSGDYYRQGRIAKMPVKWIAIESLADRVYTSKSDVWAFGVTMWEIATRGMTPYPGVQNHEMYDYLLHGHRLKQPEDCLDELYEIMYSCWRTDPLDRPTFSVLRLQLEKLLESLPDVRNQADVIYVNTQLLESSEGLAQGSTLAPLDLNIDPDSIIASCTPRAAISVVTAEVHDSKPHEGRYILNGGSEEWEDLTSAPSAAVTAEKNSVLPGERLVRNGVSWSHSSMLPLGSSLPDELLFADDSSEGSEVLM
Sequence of FGFR3 (P22607 whole entry, looked up): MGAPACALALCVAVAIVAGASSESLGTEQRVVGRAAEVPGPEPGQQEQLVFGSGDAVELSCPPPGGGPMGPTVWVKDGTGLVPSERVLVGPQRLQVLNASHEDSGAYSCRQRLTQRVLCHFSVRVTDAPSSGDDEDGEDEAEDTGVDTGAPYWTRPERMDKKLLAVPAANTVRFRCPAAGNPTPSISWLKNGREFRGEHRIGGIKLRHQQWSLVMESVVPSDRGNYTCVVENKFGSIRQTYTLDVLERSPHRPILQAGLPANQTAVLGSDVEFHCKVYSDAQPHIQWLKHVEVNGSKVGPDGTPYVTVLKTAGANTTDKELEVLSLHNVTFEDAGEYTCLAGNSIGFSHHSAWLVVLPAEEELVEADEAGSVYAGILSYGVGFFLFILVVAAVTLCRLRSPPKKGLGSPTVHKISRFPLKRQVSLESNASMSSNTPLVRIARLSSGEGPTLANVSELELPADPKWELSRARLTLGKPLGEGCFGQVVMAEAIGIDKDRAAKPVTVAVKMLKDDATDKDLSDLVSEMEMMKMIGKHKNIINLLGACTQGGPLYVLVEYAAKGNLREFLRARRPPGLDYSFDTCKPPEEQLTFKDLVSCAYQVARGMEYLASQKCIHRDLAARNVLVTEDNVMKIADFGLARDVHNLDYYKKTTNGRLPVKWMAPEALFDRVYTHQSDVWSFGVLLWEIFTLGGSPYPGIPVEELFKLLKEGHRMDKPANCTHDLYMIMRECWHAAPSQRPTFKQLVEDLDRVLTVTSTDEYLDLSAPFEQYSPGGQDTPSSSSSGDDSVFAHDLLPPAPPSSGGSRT
Sequence of Fes (P07332 whole entry, looked up): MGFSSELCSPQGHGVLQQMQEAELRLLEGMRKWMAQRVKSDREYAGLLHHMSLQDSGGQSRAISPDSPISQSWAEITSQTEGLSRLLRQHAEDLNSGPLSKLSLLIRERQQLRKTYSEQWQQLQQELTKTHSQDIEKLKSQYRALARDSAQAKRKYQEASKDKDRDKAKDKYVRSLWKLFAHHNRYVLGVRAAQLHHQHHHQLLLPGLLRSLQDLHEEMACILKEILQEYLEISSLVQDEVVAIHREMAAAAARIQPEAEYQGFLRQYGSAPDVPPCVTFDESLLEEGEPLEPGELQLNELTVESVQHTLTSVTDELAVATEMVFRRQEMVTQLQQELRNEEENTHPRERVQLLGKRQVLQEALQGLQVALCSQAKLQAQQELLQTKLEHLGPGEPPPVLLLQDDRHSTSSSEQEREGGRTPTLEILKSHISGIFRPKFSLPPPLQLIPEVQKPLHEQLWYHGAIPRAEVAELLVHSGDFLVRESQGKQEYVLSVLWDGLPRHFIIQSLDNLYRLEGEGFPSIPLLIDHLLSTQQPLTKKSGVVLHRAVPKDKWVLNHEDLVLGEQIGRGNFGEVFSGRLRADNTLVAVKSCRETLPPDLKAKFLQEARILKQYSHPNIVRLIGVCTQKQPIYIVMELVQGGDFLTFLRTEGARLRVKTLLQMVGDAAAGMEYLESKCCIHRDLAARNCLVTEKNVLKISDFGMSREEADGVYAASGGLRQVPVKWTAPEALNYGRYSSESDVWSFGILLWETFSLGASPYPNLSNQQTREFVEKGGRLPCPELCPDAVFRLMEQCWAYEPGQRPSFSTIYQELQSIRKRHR
Sequence of Fyn (P06241 whole entry, looked up): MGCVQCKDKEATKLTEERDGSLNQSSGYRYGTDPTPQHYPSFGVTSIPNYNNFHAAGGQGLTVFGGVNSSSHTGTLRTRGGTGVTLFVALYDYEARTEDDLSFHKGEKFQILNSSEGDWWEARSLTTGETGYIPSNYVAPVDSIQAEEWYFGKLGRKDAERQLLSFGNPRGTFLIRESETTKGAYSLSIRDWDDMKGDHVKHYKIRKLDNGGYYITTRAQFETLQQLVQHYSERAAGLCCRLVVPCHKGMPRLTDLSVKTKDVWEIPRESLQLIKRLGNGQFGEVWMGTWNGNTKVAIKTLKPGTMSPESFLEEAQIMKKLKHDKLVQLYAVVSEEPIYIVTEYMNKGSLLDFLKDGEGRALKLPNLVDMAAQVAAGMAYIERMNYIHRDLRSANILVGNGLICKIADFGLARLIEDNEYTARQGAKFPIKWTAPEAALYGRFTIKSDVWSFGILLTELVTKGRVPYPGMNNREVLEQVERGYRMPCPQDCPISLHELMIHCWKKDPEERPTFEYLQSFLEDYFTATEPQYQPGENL
Sequence of Grb2 SH2 (P62993 whole entry, looked up, the tested form may be a part): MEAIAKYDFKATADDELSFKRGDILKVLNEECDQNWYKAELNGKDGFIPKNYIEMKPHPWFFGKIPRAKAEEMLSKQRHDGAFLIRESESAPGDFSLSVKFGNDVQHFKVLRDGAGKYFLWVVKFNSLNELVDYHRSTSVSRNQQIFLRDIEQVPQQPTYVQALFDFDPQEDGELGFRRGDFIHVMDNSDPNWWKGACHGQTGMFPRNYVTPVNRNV

Row | Sequence | phosphorylation enrichment (EPHB2) | phosphorylation enrichment (Fyn) | phosphorylation enrichment (c-Abl (mouse)) | phosphorylation enrichment (Fer (mouse)) | phosphorylation enrichment (Jak2) | phosphorylation enrichment (AncSZ) | phosphorylation enrichment (MERTK) | phosphorylation enrichment (Fes) | phosphorylation enrichment (FGFR3) | phosphorylation enrichment (c-Src) | phosphorylation enrichment (FGFR1) | phosphorylation enrichment (Hck) | phosphorylation enrichment (EPHB1) | SH2 binding enrichment (c-Src SH2) | SH2 binding enrichment (SHP2-C SH2) | SH2 binding enrichment (Grb2 SH2)
1 | DAASNYARGHY [TUBA3E_Y103] | 0.524 | 0.353 | 0.533 | 0.342 | 0.428 | 0.522 | 0.44 | 0.519 | 0.463 | 0.43 | 0.495 | 0.475 | 0.383 | 0.524 | 0.743 | 0.784
2 | VHNLDYFKQTT [FGFR3_Y647_K650Q_YF] | 0.545 | 0.652 | 0.602 | 0.48 | 1.31 | 0.767 | 0.434 | 0.958 | 0.819 | 0.542 | 0.743 | 0.525 | 0.56 | 0.449 | 0.573 | 0.795
3 | TSQSQYSSFRE [CCDC170_Y323_F324S] | 0.77 | 1.37 | 0.607 | 0.523 | 0.687 | 0.604 | 0.57 | 0.626 | 0.531 | 1.88 | 0.63 | 1.14 | 0.51 | 0.663 | 0.779 | 1.1
4 | GQSKGYRPKLF [SIPA1L3_Y1376_YF] | 0.324 | 0.363 | 0.448 | 0.342 | 0.37 | 0.433 | 0.389 | 0.837 | 0.419 | 0.412 | 0.364 | 0.395 | 0.319 | 0.299 | 0.548 | 0.742
5 | RSFPSYYTSHV [NEFL_Y442] | 1.34 | 0.775 | 1.02 | 0.65 | 3.72 | 1.05 | 7.71 | 1.05 | 1.28 | 1.12 | 2.19 | 1.1 | 2.37 | 1.28 | 1.11 | 1.17
6 | SLTRLCVGENA [NLRP3_Y861_Y861C] | 0.541 | 0.503 | 2.77 | 0.434 | 0.759 | 0.809 | 0.466 | 1 | 0.685 | 0.445 | 0.471 | 0.534 | 0.495 | 0.538 | 0.589 | 0.867
7 | PLDGEYFILQI [TP53_Y327_T329I] | 2.04 | 3.7 | 1.24 | 0.978 | 2.88 | 4.19 | 1.22 | 2 | 12.9 | 2.88 | 14.5 | 1.88 | 2.02 | 0.521 | 0.794 | 0.651
8 | LEVETYRRLLD [KRT12_Y429_I426V] | 0.407 | 0.421 | 0.551 | 0.439 | 0.749 | 0.676 | 0.344 | 0.797 | 0.625 | 0.349 | 0.396 | 0.511 | 0.491 | 0.467 | 0.64 | 0.843
9 | RPSRWYQFRVA [ANOS1_Y259] | 0.717 | 1.01 | 0.955 | 1.03 | 0.894 | 1.22 | 0.699 | 1.55 | 0.887 | 0.756 | 0.748 | 0.642 | 0.834 | 0.541 | 0.568 | 0.771
10 | ADEEYYEIIAA [FEStide_no-pY_2014] | 0.795 | 2.17 | 1.14 | 5.58 | 1.31 | 3.85 | 1.53 | 1.48 | 7.62 | 2.47 | 9.19 | 2.32 | 1.02 | 1.01 | 0.647 | 0.956
11 | CIILLYIFLKN [STXBP1_Y411_R406C] | 0.275 | 0.378 | 0.492 | 0.406 | 0.553 | 0.676 | 0.363 | 0.693 | 0.531 | 0.37 | 0.392 | 0.465 | 0.441 | 1.49 | 1.74 | 2.18
12 | RPASQYPHQVP [ADAM12_Y895_P893S] | 0.689 | 0.61 | 0.374 | 0.464 | 0.56 | 0.533 | 0.419 | 0.548 | 0.403 | 0.459 | 0.476 | 0.553 | 0.205 | 0.53 | 0.791 | 0.883
13 | RASSSYRETPS [SORBS1_Y79] | 0.337 | 0.655 | 0.757 | 0.513 | 1.49 | 0.681 | 0.644 | 0.659 | 0.68 | 0.775 | 0.611 | 0.502 | 0.361 | 0.491 | 0.844 | 0.876
14 | NQELIYEGRRL [TBK1_Y354] | 0.668 | 8.61 | 5 | 8.54 | 0.581 | 0.755 | 0.581 | 0.763 | 0.808 | 7.87 | 0.472 | 9.83 | 0.518 | 0.522 | 0.612 | 0.735
15 | LLSVAYKNVVR [YWHAZ_Y48_G53R] | 0.88 | 0.762 | 1.2 | 0.55 | 1.1 | 1.28 | 0.689 | 1.34 | 0.853 | 0.743 | 1.03 | 0.477 | 0.874 | 0.475 | 0.566 | 0.827
16 | ISRDVYSTDYY [NTRK2_Y702_M697I] | 2.51 | 3.34 | 0.69 | 0.703 | 1.12 | 1.83 | 6.57 | 1.04 | 3.13 | 4.67 | 4.9 | 1.95 | 2.43 | 0.543 | 0.719 | 0.745
17 | VMICAYLLHRG [PTEN_Y138] | 0.63 | 0.478 | 1.27 | 0.688 | 1.36 | 1.21 | 0.482 | 1.68 | 0.778 | 0.644 | 0.642 | 0.558 | 0.612 | 0.723 | 0.714 | 1.05

Row | Sequence | phosphorylation enrichment (EPHB2) | phosphorylation enrichment (Fyn) | phosphorylation enrichment (c-Abl (mouse)) | phosphorylation enrichment (Fer (mouse)) | phosphorylation enrichment (Jak2) | phosphorylation enrichment (AncSZ) | phosphorylation enrichment (MERTK) | phosphorylation enrichment (Fes) | phosphorylation enrichment (FGFR3) | phosphorylation enrichment (c-Src) | phosphorylation enrichment (FGFR1) | phosphorylation enrichment (Hck) | phosphorylation enrichment (EPHB1) | SH2 binding enrichment (c-Src SH2) | SH2 binding enrichment (SHP2-C SH2) | SH2 binding enrichment (Grb2 SH2)
18 | KMKGDYYCYLA [YWHAG_Y130_R132C] | 4.35 | 1.38 | 1.57 | 0.895 | 3.93 | 2.32 | 6.74 | 1.24 | 9.02 | 1.78 | 11 | 1.58 | 4.58 | 0.837 | 0.836 | 0.743
19 | LVSCTYQLARR [FGFR2_Y608_G613R] | 1.28 | 0.699 | 0.721 | 0.896 | 1.36 | 1.57 | 0.861 | 1.33 | 0.793 | 0.438 | 0.788 | 0.891 | 0.816 | 0.401 | 0.484 | 0.851
20 | HESEIYGKVCF [CSRP3_Y57_C58G_YF] | 0.911 | 6.51 | 1.34 | 6.89 | 1.19 | 1.58 | 1.24 | 1.71 | 0.939 | 4.61 | 0.813 | 3.95 | 0.885 | 0.456 | 0.672 | 0.998
21 | SDVCMYRKNIY [SYNE2_Y570] | 0.541 | 0.416 | 0.685 | 0.491 | 0.875 | 1.12 | 0.419 | 1.08 | 0.681 | 0.424 | 0.502 | 0.51 | 0.618 | 0.418 | 0.51 | 0.645
22 | YPPTHYIRRMP [SLC4A11_Y820_V824M] | 0.412 | 0.397 | 0.484 | 0.59 | 0.4 | 0.717 | 0.447 | 0.597 | 0.493 | 0.381 | 0.451 | 0.339 | 0.455 | 0.606 | 0.765 | 0.875
23 | KDYETYQSFQN [CTNND2_Y1157_P1159S] | 8.93 | 6.69 | 0.875 | 0.651 | 1.03 | 1.33 | 0.427 | 1.03 | 0.691 | 4.92 | 0.551 | 5.74 | 7.69 | 0.533 | 0.712 | 0.981
24 | KDLPNYNWKSF [KISS1_Y112_N115K] | 0.529 | 0.438 | 0.72 | 0.464 | 0.918 | 0.655 | 0.455 | 0.865 | 0.598 | 0.588 | 0.418 | 0.439 | 0.532 | 0.38 | 0.475 | 0.664
25 | IFGEEYEEQPR [ZMYM2_Y1033_V1028I] | 0.647 | 0.535 | 0.662 | 0.721 | 1.16 | 1.47 | 0.451 | 1.28 | 0.849 | 0.591 | 0.611 | 0.608 | 0.663 | 0.561 | 0.77 | 0.819
26 | IPKTWYSAEQF [CD207_Y217] | 3.04 | 0.522 | 0.526 | 0.448 | 0.681 | 0.855 | 9.16 | 0.939 | 0.538 | 0.615 | 0.494 | 0.542 | 3.19 | 0.574 | 0.914 | 0.876
27 | ARMTNCGLPRY [TSPAN12_Y138_Y138C] | 0.365 | 0.394 | 0.575 | 0.335 | 0.519 | 0.588 | 0.354 | 0.602 | 0.487 | 0.456 | 0.446 | 0.453 | 0.487 | 0.845 | 1 | 1.25
28 | KGFRGYSFDDI [TMEM230_Y110_YF] | 0.541 | 0.402 | 0.551 | 0.409 | 0.835 | 0.824 | 0.375 | 0.798 | 0.501 | 0.452 | 0.41 | 0.412 | 0.495 | 0.453 | 0.678 | 0.863
29 | DEDFLCREELA [POR_Y575_Y575C_YF] | 0.657 | 0.528 | 0.821 | 0.486 | 1.33 | 1.25 | 0.501 | 1.38 | 0.846 | 0.613 | 0.572 | 0.629 | 0.701 | 0.543 | 0.734 | 0.8
30 | FEEDSYSHVMA [FDPS_Y388_I391V_YF] | 0.482 | 0.511 | 0.731 | 1.42 | 1.14 | 1.57 | 0.631 | 1.3 | 0.901 | 0.779 | 0.934 | 0.646 | 0.696 | 0.584 | 0.724 | 0.983
31 | HRGCLYLAIEY [TEK_Y899_Y897C] | 1.17 | 0.695 | 1.49 | 0.868 | 1.88 | 1.86 | 0.691 | 2.3 | 1.31 | 0.936 | 0.827 | 1.05 | 1.01 | 0.423 | 0.564 | 1.04
32 | VGTKRYRAPEV [ACVRL1_Y375_M376R] | 0.338 | 0.379 | 0.499 | 0.364 | 0.351 | 0.443 | 0.339 | 0.565 | 0.363 | 0.335 | 0.298 | 0.305 | 0.308 | 0.528 | 0.861 | 0.892
33 | QLAPQYTYTQG [FLNA_Y1761_A1764T] | 0.413 | 0.422 | 0.36 | 0.517 | 0.611 | 0.828 | 1.17 | 0.766 | 0.768 | 0.526 | 0.411 | 0.533 | 0.436 | 1.34 | 1.03 | 0.766
